Source: paper PMC10821397, “A New Approach for Preparing Stable High-Concentration Peptide Nanoparticle Formulations” (Pharmaceuticals, 2023)

Experiments:
Type in all cases: physicochemical
[1] = Scale-up nanosuspension, particle size by dynamic light scattering; details: for % Pd: normalized polydispersity, scale-up; for % Pd / Average Radius: 100 mg/mL, DLS; for Average Radius: scale-up batch, average of 10 acquisitions, 25 °C, ± SD
Description: A 4 mL clear glass vial was used as a scale-up container. […] The vial was then placed on a Resodyn LabRAM II Resonant Acoustic mixer and milled at 50 G acceleration for 2 h. The resulting nanosuspension was recovered by using a syringe equipped with an 18 G needle.
(§1) After milling, a 5 μL aliquot of the nanosuspension sample was taken and diluted in 995 μL of D.I. water for analysis using a Wyatt DynaProTM Plate Reader II (Waters Corporation, Santa Barbara, CA, USA) dynamic light scattering instrument. A 30 μL aliquot of the diluted suspension was dispensed into a Corning® low-volume black polystyrene 384-well plate for analysis. The particle size of each sample was reported as an average of 10 acquisitions with an acquisition time of 5 s at 25 °C. Autocorrelation curves were fitted using either the cumulants or regularization method, and the average particle radius and diameters D50 and D90 were obtained and reported along with their standard deviations. The normalized polydispersity (%Pd) was calculated as the polydispersity divided by the estimated hydrodynamic radius from the cumulants fit of the autocorrelation function multiplied by 100.

[2] = Particle size of nanosuspensions on storage (dynamic light scattering); details: DLS
Description: as §1

[3] = Physical stability (monomer content) by size-exclusion chromatography; details: both formulations (PVP K29-32/SDS, HPC-SL/SDS), 28 days, 4 °C, RT and 37 °C; no higher-order oligomers
Description: An Agilent 1290 Infinity II (Agilent Technologies, Santa Clara, CA, USA) was used for chromatographic analysis. Data were acquired and processed using Empower 3 software (Waters, Milford, MA, USA). For all three peptides (GNE-A, cyclosporin A, and insulin), separations were performed in an Xbridge BEH125 SEC column ([…], 7.8 × 150 mm) for physical stability analysis. Isocratic method was applied in which 80% of the 5 mM phosphate buffer at pH 7 in acetonitrile was used as the mobile phase. The injection volume was 8 μL and the column temperature was 30 °C.

[4] = Nanomilling screen (resonant acoustic milling), particle size by dynamic light scattering; details: DLS; for Average Radius: nanomilling screen, milled at 100 mg/mL in water, 50 G, 2 h, average of 10 acquisitions, 25 °C, ± SD; for % Pd: normalized polydispersity, screen, 100 mg/mL
Description: A UV-Star clear, flat-bottom 96-well plate was used as a high-throughput mixing container, as described previously. […] Each well plate was sealed with a Thermo Fisher Scientific ALPS 50 V Manual Heat Sealer (Thermo Fisher Scientific Inc., Waltham, MA, USA). Each sealed well plate was then placed on a Resodyn LabRAM II Resonant Acoustic mixer (Resodyn Acoustic Mixers, Butte, MT, USA) and milled at 50 G acceleration for 2 h.
as §1

[5] = 25% HPC-SL, 1% SDS (wt% to peptide)
[6] = 25% PVP K29-32, 1% SDS (wt% to peptide)
[7] = 25% Pluronic F127 (wt% to peptide)

Which results are given for “Insulin (recombinant human) [Insulin Monomer]”?
average radius of the nanoparticles ([1]; both formulations (HPC-SL/SDS and PVP K29-32/SDS), screen and scale-up batch): 110–130 nm; % Pd [1, 5]: 33.6%; % Pd [1, 6]: 19.9%; Average Radius [1, 5]: 135 ± 14 nm; Average Radius [1, 6]: 121 ± 5 nm; particle size on storage ([2]; insulin nanosuspension with HPC-SL/SDS, 4 °C and room temperature, up to 1 month): some particle growth; particle size on storage ([2]; insulin nanosuspension with HPC-SL/SDS, 37 °C, up to 1 month): significant aggregation; particle size on storage ([2]; insulin nanosuspension with PVP K29-32/SDS, 28 days at 4 °C or room temperature): No significant particle size growth; particle size on storage ([2]; insulin nanosuspension with PVP K29-32/SDS, up to a month at 37 °C): remained in the accepted nano-scale range; insulin monomer concentration (SEC) [3]: remains quantitative; Average Radius [4, 5]: 130 ± 4 nm; Average Radius [4, 6]: 112 ± 2 nm; Average Radius [4, 7]: 419 ± 24 nm; Average Radius ([4]; 25% Tween 80 (wt% to peptide)): 903 ± 124 nm; % Pd [4, 7]: 14.6%; % Pd ([4]; 25% Tween 80 (wt% to peptide)): Multimodal
